The target of this assay is recombinant human IL-1β (human) (UniProt P01584). Put plainly: cell-based or functional assay.
Chain of UniProt P01584 (P01584 117-269 limits assumed): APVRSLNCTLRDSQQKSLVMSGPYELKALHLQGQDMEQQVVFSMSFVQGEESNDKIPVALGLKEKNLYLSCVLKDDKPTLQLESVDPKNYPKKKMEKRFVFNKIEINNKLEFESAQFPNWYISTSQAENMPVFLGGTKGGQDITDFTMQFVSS
Regarding “hIL-1RAcp.hIL-1R1.TG.hFc.ARA.CTP.TG.hFc (Fc fusion)”, the IC50 pM (HEK293/NFκB-luciferase bioassay, IL-1β at 4 pM) is 100 pM.

In the case of “hIL-1RAcp.hIL-1R1.myc.myc.His6 (receptor)”, the IC50 pM (HEK293/NFκB-luciferase bioassay, IL-1β at 4 pM) worked out at 3400 pM.

Take “hIL-1RI.TG.hFc.ARA.CTP.TG.hFc.ARA.hIL-1RAcP (Fc fusion)”: the IC50 pM (HEK293/NFκB-luciferase bioassay, IL-1β at 4 pM) was 23 pM.

The values above are taken from patent US20070087411A1.
